Consider three molecules from article PMC10397247.

For assay [1], the target named is T1, P7A-bH.
T1 chain: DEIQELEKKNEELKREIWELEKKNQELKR
Put plainly: two-hybrid library CCNG1.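 Further: natural log of median RNA to DNA barcode read ratio; higher means stronger binding.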

Assay [2] addresses T2, P6A-bH.
T2 chain: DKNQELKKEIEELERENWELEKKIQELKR
Put plainly: two-hybrid library CCNG1.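 Further: natural log of median RNA to DNA barcode read ratio; higher means stronger binding.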

Assay [3] deals with T3, P4A-bH.
T3 chain: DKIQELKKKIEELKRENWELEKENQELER
As to the kind of experiment: two-hybrid library CCNG1.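 Further: natural log of median RNA to DNA barcode read ratio; higher means stronger binding.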

For assay [4], the target named is T4, P5A-bH.
T4 chain: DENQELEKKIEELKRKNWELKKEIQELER
Put plainly: two-hybrid library CCNG1.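 Further: natural log of median RNA to DNA barcode read ratio; higher means stronger binding.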

The target of assay [5] is T5, P9A-bH.
T5 chain: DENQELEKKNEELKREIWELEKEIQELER
Put plainly: two-hybrid library CCNG1.

In assay [6] the target is T6, P8A-bH.
T6 chain: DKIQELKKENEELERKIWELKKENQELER
As to the kind of experiment: two-hybrid library CCNG1.

Assay [7] has as its target T7, 4H3449-AA.
T7 chain: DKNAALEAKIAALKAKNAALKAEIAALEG
As to the kind of experiment: two-hybrid library CCmax. The following applies: mean of both orientations.

Assay [8] deals with T8, 4H2903-AA.
T8 chain: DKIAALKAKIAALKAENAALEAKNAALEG
Put plainly: two-hybrid library CCmax. The following applies: mean of both orientations.

In assay [9] the target is T9, 4H341-AA.
T9 chain: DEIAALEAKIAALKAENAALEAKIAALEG
Put plainly: two-hybrid library CCmax. The following applies: mean of both orientations.

The target of assay [10] is T10, 4H2760-AA.
T10 chain: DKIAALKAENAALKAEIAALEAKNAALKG
As to the kind of experiment: two-hybrid library CCmax. The following applies: mean of both orientations.

The target of assay [11] is T11, 4H3915-AA.
T11 chain: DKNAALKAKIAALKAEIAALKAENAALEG
As to the kind of experiment: two-hybrid library CCmax. The following applies: mean of both orientations.

The target of assay [12] is T12, 4H2947-AA.
T12 chain: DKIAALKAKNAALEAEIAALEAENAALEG
As to the kind of experiment: two-hybrid library CCmax. The following applies: mean of both orientations.

Assay [13] concerns the target T13, 4H380-AA.
T13 chain: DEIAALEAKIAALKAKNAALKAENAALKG
Put plainly: two-hybrid library CCmax. The following applies: mean of both orientations.

For assay [14], the target named is T14, 4H3629-AA.
T14 chain: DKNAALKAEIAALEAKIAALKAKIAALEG
Put plainly: two-hybrid library CCmax. The following applies: mean of both orientations.

Assay [15] deals with T15, 4H324-AA.
T15 chain: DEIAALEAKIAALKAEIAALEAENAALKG
Put plainly: two-hybrid library CCmax. The following applies: mean of both orientations.

Assay [16] has as its target T16, 4H249-AA.
T16 chain: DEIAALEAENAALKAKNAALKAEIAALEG
Put plainly: two-hybrid library CCmax. The following applies: mean of both orientations.

In assay [17] the target is T17, 4H3094-AA.
T17 chain: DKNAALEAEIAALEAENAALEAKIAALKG
Put plainly: two-hybrid library CCmax. The following applies: mean of both orientations.

Assay [18] concerns the target T18, 4H432-AA.
T18 chain: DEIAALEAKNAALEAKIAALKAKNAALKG
As to the kind of experiment: two-hybrid library CCmax. The following applies: mean of both orientations.

In assay [19] the target is T19, 4H2621-AA.
T19 chain: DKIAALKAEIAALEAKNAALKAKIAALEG
Put plainly: two-hybrid library CCmax. The following applies: mean of both orientations.

Assay [20] deals with T20, 4H3049-AA.
T20 chain: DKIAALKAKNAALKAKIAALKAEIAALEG
Put plainly: two-hybrid library CCmax. The following applies: mean of both orientations.

In assay [21] the target is T21, 4H2604-AA.
T21 chain: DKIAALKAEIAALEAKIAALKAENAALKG
As to the kind of experiment: two-hybrid library CCmax. The following applies: mean of both orientations.

Assay [22] has as its target T22, 4H3974-AA.
T22 chain: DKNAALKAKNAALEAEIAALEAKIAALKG
As to the kind of experiment: two-hybrid library CCmax. The following applies: mean of both orientations.

For assay [23], the target named is T23, 4H2961-AA.
T23 chain: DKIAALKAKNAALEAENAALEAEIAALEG
Put plainly: two-hybrid library CCmax. The following applies: mean of both orientations.

Assay [24] has as its target T24, 4H2580-AA.
T24 chain: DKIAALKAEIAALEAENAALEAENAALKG
Put plainly: two-hybrid library CCmax. The following applies: mean of both orientations.

In assay [25] the target is T25, 4H2774-AA.
T25 chain: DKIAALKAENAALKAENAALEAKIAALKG
As to the kind of experiment: two-hybrid library CCmax. The following applies: mean of both orientations.

Assay [26] concerns the target T26, 4H63-AA.
T26 chain: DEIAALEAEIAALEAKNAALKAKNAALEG
As to the kind of experiment: two-hybrid library CCmax. The following applies: mean of both orientations.

The target of assay [27] is T27, 4H235-AA.
T27 chain: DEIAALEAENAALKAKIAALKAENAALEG
As to the kind of experiment: two-hybrid library CCmax. The following applies: mean of both orientations.

Assay [28] has as its target T28, 4H446-AA.
T28 chain: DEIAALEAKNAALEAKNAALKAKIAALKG
Put plainly: two-hybrid library CCmax. The following applies: mean of both orientations.

Assay [29] deals with T29, 4H3777-AA.
T29 chain: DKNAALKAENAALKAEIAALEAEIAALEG
As to the kind of experiment: two-hybrid library CCmax. The following applies: mean of both orientations.

Assay [30] addresses T30, 4H3619-AA.
T30 chain: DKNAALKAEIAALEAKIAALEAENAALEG
Put plainly: two-hybrid library CCmax. The following applies: mean of both orientations.

Assay [31] has as its target T31, 4H1878-AA.
T31 chain: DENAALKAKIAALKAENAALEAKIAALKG
Put plainly: two-hybrid library CCmax.

The target of assay [32] is T32, 4H4038-bN.
T32 chain: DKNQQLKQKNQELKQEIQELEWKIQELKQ
Put plainly: two-hybrid library CCNG1.

For the molecule DKIQELKKKIEELKRENWELEKENQELER [P4A-bH], the interaction score in [1] was -0.412; in assay [2], -2.06; in assay [3] it was -1.38; in assay [4] it was -0.285; in assay [5], -0.144; in assay [6], 0.0606.
Consider DENAALKAKIAALKAENAALEAKIAALKG [4H1878-AA], for which the interaction score in assay [7] was 1.63; in assay [8], -0.956; in assay [9], 0.00503; in assay [10], 1.48; in assay [11] it was -1.7; in assay [12] it was -0.843. Besides, the interaction score in assay [13] was -0.854; in assay [14], 1.63; in assay [15] it was 0.44; in [16], 1.34; in assay [17] it was 1.41; in assay [18], -0.557. Moreover, the interaction score in [19] was 2.05; in assay [20], -0.448; in [21], -0.964; in assay [22] it was -1.23; in assay [23], -1.54; in [24], -0.744. For the same molecule, the interaction score is -1.27 in [25]; 1.51 in [26]; 0.899 in [27]; -1.08 in assay [28]; -1.54 in [29]; -0.661 in assay [30]. The interaction score in [31] came to 0.691.
Molecule DKNQQLKQKNQELKQEIQELEWKIQELKQ [4H4038-bN] gave an interaction score in [32] of -0.153.
